# Test results from PMC8192010.
# pKd: −log10 of the molar value.
# Test system: CsrA-H6 (Escherichia coli (stated identical to S. Typhimurium CsrA))
# Experiment: EMSA
substance,measurement,value
hilE leader RNA (+153 to +280),pKd,7.43
